# Results as given in patent publication US8198236B2, “Methods and compositions for the treatment of cancer” (Washington University, priority 2007, dated 2012).
# Legend:
# [1] = system: Wnt signaling; test: Wnt signaling in MMTV-Wnt1 tumors (GST-E-cadherin pull-down, c-Myc expression); format: in vivo, mice; settings: GST-E-cadherin pull-down and c-Myc expression
# Protocol: The GST-E-cadherin pulldown assay was performed as previously described (2). Cells expressing control or LRP6 shRNA were treated with L cells or Wnt3a-conditioned media (CM) for 4 h. Free β-catenin was determined using a GST-E-cadherin pull-down assay. Cells were lysed for 30 minutes at 4° C. Protein concentrations in lysates were quantified, and equal quantities of total proteins from different samples were incubated with GST-E-cadherin Sepharose beads for 4 h at 4° C. After incubation, the beads were washed three times and the bound proteins were eluted and separated via SDS-PAGE. Western blotting was performed using antibody to β-catenin.
# In these experiments, mice bearing established MMTV-Wnt1 tumor transplants were divided into three groups (five animals per group) and were i.p. injected with PBS (vehicle), Mesd, or Mesd peptide every other day. Tumor volume was analyzed using caliper measurement. Data represent at least three independent experiments and each time point represents the mean tumor volume±SEM. *p<0.05; **p<0.01. […] Scale bar=50 μm.
# [2] = system: HCC1187 cells; test: MTT assay of Wnt3a CM-stimulated growth of HCC1187 cells; format: cell-based, human; settings: Mesd 1 μM, 24 h
# Protocol: Cell growth and cell proliferation were measured by MTT assay (Promega) and BrdU incorporation using the BrdU ELISA kit (Roche Molecular Systems) according to the manufacturers' instructions. […] Breast cancer cells expressing control or LRP6 shRNA were seeded into 48-well plates. MTT-labeling reagent was added to each well 24 h later, and plates were incubated at 37° C. for 4 h. After the incubation period, the formazan crystals were dissolved in an MTT solubilization reagent and the resulting color was quantified spectrophotometrically. In some experiments, cell proliferation was measured by BrdU incorporation using the BrdU ELISA kit (Roche Molecular Systems) according to the manufacturer's instructions. Briefly, cancer cells expressing control or LRP6 shRNA were plated on 96-well plate. Cells were incubated with BrdU for 24 h, and the newly synthesized BrdU-DNA was then determined by colorimetry using an ELISA reader. All experiments were performed three times in triplicate.
# In FIG. 20, * indicates p<0.05 compared to L cell CM; ** indicates p<0.01 compared to L cell CM.
# [3] = Mesd in serum after a single i.p. dose (Western blot quantification); format: in vivo, mice
# Protocol: In experiments shown in FIG. 23, pharmacokinetics of Mesd peptide and Mesd were examined. FIG. 23A: Amount of Mesd in serum following a single dose of protein administration. Mice were dosed at 5, 10, 20 mg/kg of Mesd via i.p. and the serum samples were collected from individual mice at the indicated time points. The levels of Mesd in serum were quantified by comparison to Mesd pure protein with known concentrations in Western blot analysis. Values are the average of triple determinations with S.D. indicated by error bars. […] Samples were obtained by terminal bleed under anesthesia at each of the indicated time points (N=3 animals per time point). Radioactivity was measured using a gamma counter and DPM converted to mass units/mL blood using the specific activity (DPM/mass) of each test substance. Data are plotted as mass U/mL of test substance with standard deviation indicated by error bars.
# [4] = system: LRP6; test: 125I-Mesd cell surface binding to LRP6-transduced HT1080 cells; design: species or system human; settings: HT1080 cells transduced with vector alone
# Protocol: (§1) To examine whether Mesd binds with high affinity to most members of the LDLR family at the cell surface, we performed cell surface ligand binding experiments with cells stably transduced with LRP6 cDNA. Human HT1080 cells, which express undetectable levels of LRP6, were transduced with a viral vector alone (pLNCX2) or with vector containing LRP6 cDNA (Li, Y., Oncogene 23: 9129-9135, 2004) and used for ^125I-Mesd binding (FIG. 1A). ^125I-Mesd (5 nM) reached maximal binding after 2 hours incubation at 4° C. with LRP6-expressing HT1080 cells (FIG. 1A).
# (§2) (A) Time course of ^125I-Mesd (5 nM) binding to LRP6-transduced HT1080 cells and the control cells. Assay was carried out for the indicated periods at 4° C. in the absence (total) or presence of 500 nM Mesd (non-specific). (B) Saturation binding of ^125I-Mesd to LRP6-transduced HT1080 cells and the control cells. Assay was carried out at indicated concentrations for 3 hours at 4° C. in the absence (total) or presence (non-specific) of 500 nM Mesd. (C) Scatchard plots of data in B. All values are the average of triple determinations with the s.d. indicated by error bars.
# (§3) Cells (2×10^5) were seeded into 12-well dishes 1 day prior to assay. Ligand-binding buffer (minimal Eagle's medium containing 0.6% BSA with a different concentration of radioligand, 0.6 ml/well) was added to cell monolayers, in the absence or the presence of 500 nM unlabeled RAP or 500 nM unlabeled Mesd, followed with incubation for 0-4 hours at 4° C. Thereafter, overlying buffer containing unbound ligand was removed, and cell monolayers were washed and lysed in low-SDS lysis buffer (62.5 mM Tris-HCl pH 6.8, 0.2% SDS, 10% v/glycerol) and counted.
# (§4) To analyze the Mesd sequences that are required for Mesd to bind to mature LRP6 at the cell surface with high affinity, sequences were compared between mouse Mesd and its homologs from different species. […] We thus generated two truncated Mesd mutants lacking either the N-terminal region, MESD (12-195), or both the N-terminal and C-terminal regions, Mesd (12-155) (FIG. 3A). The ability of these mutants to bind to cell surface LRP6 was then assessed.
# (§5) In this example, a truncated Mesd mutant containing the last 45 amino acids of C-terminal region was generated (FIG. 3A) and its binding affinity for LRP6 was then analyzed. […] (A) Binding analyses of ^125I-Mesd and its mutant Mesd (150-195) (5 nM) to LRP6-transduced HT1080 cells and control cells. (B) Binding analyses of ^125I-Mesd and its mutant Mesd (150-195) (5 nM) to LRP6-transduced HT1080 cells. Assays were carried out for 3 hours at 4° C. in the absence or presence of 500 nM Mesd or its mutant. Values are the means of triple determinations with the s.d. indicated by error bars.
# (§6) LRP6-mediated Mesd uptake and degradation was investigated in the experiments illustrated in FIG. 7. (A) LRP6-mediated ^125I-Mesd (5 nM) degradation in LRP6-transduced HT1080 cells and control cells was carried out for 4 hours at 37° C. in the absence or presence of 500 nM Mesd. (B) ^125I-Mesd (5 nM) binding to LRP6-transduced HT1080 cells and the control cells was carried out for 4 hours at 4° C. in the absence or presence of 500 nM Mesd. Values are the means of triple determinations with the s.d. indicated by error bars.
# [5] = biological target: T1, LRP6 (Homo sapiens, UniProt O75581); test: as above
# T1 construct: expressed in transfected cells; host or cells: human HT1080 cells, retroviral vector pLNCX2
# T1 sequence (O75581 20-1613): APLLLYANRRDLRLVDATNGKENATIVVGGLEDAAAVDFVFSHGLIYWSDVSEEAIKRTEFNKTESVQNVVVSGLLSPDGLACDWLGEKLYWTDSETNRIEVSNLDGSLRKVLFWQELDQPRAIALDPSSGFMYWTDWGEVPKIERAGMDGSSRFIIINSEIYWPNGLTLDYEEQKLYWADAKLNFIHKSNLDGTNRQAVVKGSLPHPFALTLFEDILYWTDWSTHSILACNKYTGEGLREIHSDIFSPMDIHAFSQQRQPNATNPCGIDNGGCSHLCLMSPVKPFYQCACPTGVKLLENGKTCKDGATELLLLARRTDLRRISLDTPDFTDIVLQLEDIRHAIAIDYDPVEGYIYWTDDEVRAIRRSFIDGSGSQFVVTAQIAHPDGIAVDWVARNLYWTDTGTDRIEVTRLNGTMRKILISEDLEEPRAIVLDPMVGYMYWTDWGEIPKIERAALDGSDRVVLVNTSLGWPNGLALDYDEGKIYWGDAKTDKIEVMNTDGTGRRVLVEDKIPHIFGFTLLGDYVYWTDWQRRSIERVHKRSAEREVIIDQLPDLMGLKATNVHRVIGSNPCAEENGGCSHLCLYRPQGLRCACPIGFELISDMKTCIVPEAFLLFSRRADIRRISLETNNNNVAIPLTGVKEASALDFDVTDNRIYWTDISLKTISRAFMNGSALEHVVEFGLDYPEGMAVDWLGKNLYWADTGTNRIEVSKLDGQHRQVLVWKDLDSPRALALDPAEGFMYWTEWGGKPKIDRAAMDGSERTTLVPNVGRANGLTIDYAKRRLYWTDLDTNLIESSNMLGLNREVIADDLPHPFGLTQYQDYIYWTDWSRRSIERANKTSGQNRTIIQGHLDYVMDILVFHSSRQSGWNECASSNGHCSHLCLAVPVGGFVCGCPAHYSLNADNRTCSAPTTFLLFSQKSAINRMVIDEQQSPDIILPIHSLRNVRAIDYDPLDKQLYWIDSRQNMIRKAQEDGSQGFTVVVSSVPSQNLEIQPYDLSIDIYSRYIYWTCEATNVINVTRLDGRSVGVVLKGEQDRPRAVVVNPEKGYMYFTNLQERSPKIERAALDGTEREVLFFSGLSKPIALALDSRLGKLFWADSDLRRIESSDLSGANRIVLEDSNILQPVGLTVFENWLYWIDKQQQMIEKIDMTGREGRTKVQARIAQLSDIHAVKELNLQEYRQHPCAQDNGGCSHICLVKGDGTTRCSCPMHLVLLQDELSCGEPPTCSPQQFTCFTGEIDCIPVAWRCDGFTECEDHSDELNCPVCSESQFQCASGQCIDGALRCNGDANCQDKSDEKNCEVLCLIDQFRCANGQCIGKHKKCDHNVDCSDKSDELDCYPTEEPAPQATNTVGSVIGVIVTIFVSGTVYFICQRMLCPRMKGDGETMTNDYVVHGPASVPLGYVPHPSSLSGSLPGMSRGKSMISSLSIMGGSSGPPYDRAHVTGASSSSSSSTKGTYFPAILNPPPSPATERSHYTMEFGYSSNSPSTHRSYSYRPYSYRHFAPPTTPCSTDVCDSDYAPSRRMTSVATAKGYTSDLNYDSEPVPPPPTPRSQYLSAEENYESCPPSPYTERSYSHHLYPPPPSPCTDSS
# Protocol: as §1, §2, §3, §4, §5, §6
# [6] = biological target: LRP5 (Homo sapiens, UniProt O75197); test: 125I-DKK1 binding to LRP5; settings: FIG. 10B
# LRP5, sequence (O75197 32-1615): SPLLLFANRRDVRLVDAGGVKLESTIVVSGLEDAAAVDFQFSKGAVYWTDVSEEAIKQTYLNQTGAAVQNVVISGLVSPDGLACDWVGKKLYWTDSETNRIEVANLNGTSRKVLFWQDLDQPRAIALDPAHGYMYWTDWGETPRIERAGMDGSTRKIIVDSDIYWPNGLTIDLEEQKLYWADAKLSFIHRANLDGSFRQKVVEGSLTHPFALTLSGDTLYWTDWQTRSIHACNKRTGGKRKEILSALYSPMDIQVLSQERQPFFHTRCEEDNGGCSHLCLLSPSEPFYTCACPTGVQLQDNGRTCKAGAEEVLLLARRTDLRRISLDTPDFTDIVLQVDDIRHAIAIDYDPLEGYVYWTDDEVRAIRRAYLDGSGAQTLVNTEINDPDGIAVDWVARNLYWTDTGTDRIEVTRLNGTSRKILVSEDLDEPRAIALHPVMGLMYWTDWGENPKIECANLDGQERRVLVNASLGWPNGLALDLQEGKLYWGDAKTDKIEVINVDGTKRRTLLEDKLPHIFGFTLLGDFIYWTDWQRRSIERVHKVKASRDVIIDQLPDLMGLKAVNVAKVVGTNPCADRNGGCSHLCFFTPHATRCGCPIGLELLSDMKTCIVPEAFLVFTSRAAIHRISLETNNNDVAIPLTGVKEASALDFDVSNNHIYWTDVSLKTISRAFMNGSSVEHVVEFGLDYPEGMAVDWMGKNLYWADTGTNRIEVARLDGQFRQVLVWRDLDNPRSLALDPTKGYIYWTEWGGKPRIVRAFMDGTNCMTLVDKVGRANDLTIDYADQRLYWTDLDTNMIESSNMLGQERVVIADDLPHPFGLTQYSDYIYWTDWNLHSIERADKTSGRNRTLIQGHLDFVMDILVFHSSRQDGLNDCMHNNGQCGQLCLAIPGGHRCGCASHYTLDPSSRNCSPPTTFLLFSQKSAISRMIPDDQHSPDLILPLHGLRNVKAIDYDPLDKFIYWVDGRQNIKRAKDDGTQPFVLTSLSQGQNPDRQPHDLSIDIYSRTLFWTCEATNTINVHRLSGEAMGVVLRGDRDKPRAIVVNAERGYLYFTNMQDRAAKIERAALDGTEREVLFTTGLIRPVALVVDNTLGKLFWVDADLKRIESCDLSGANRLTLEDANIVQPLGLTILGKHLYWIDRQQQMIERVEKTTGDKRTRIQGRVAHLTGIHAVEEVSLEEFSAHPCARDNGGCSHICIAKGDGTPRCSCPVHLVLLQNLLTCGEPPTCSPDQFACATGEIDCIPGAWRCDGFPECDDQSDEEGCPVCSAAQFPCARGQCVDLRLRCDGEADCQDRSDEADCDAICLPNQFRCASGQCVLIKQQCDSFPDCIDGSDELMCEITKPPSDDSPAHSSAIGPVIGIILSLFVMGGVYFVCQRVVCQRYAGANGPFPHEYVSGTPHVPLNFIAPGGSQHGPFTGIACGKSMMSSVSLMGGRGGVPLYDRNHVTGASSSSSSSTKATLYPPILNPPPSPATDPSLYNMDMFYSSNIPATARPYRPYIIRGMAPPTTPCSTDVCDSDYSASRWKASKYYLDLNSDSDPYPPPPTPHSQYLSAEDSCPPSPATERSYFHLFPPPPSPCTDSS
# Protocol: In order to investigate the binding of Mesd polypeptide and an Mesd oligopeptide to either LRP5 or LRP6, binding assays were performed using ^125I-Mesd or ^125I-DKK1 (FIG. 10).
molecule,measurement,setting,value
"Mesd: Recombinant full-length mouse Mesd expressed in E. coli, N-terminal polyhistidine tail, lacking the signal peptide (protein, left off: small tags and cut ends, Recombinant full-length mouse Mesd expressed in E. coli, N-terminal polyhistidine tail, lacking the signal peptide) ADTPGEATPPPRKKKDIRDYNDADMARLLEQWEKDDDIEEGDLPEHKRPSAPIDFSKLDPGKPESILKMTKKGKTLMMFVTVSGNPTEKETEEITSLWQGSLFNANYDVQRFIVGSDRAIFMLRDGSYAWEIKDFLVSQDRCAEVTLEGQMYPGKGGGSKEKNKTKPEKAKKKEGDRKPRASKEDNRAGSRREDL",Wnt signaling in tumors compared to control treatment,[1],decreased Wnt signaling
same,Effect on Wnt3a CM-increased cell growth,[2],abolished
same,Absorption after dosing,[3],rapidly absorbed
same,125I-Mesd binding to control cells (pLNCX2),[4],No significant
same,125I-Mesd binding,"[5]; 5 nM, 4 hours at 4° C.",1320 fmoles/mg cell protein
same,Concentration at which Mesd specific binding saturates,"[5]; LRP6-transduced HT1080 cells, 3 hours at 4° C.",> 6.4 nM
same,Reduction in binding of 125I-DKK1 to LRP5,[6],small but significant reduction
